Experimental data as given in patent US20230060095A1 (Regeneron, published 2023).
Where a chain is given by its changes, count along the chain named.

Assays:
[1] = target: T1, soluble HLA-A2:PRAME (312-320) tetramer (human); experiment: flow cytometry, soluble pMHC tetramer on CHO cells expressing the TCR
T1 construct: Commercial tetramer (MBL International); construct limits, biotin tag and streptavidin/fluorophore not described; also called PRAME/HLA tetramer reagent

[2] = target: T2, PRAME peptide on HLA-A*02:01 (human); experiment: multimer staining
T2 peptide: RLDQLLRHV

B1: PN46883 (TCR, V domains shown)
V domain 1: AQKVTQAQTEISVVEKEDVTLDCVYETRDTTYYLFWYKQPPSGELVFLIRRNSFDEQNEISGRYSWNFQKSTSSFNFTITASQVVDSAVYFCALSVSSYNTDKLIFGTGTRLQVFP
V domain 2: NAGVMQNPRHLVRRRGQEARLRCSPMKGHSHVYWYRQLPEEGLKFMVYLQKENIIDESGMPKERFSAEFPKEGPSILRIQQVVRGDSAAYFCASSHRDDTEAFFGQGTRLTVV
notes: stained with anti-mouse TCR constant region antibody H57-597) and full-length chains were expressed on CHO cells
Cell Frequency ≥1000 MFI, ≥1% (% tetramer positive cells in the Ag+ gate) [1]: 64.7%
binding result [2]: recognises

B2: PN46857 (TCR, V domains shown)
V domain 1: AQKVTQATREISVVEKEDVTLDCVYETRDTTYYLFWYKQPPSGELVFLIRRNSFDEQNEISGRYSWNFQKSTSSFNFTITASQVVDSAVYFCALSEGYGNKLVFGAGTILRVKS
V domain 2: B1 V domain 2
notes: as for B1
Cell Frequency ≥1000 MFI, ≥1% (% tetramer positive cells in the Ag+ gate) [1]: 53.9%
binding result [2]: recognises

B3: PN46880 (TCR, V domains shown)
V domain 1: AQRVTQPEKLLSVFKGAPVELKCNYSYSGSPELFWYVQYSRQRLQLLLRHISRESIKGFTADLNKGETSFHLKKPFAQEEDSAMYYCALSGASGGSYIPTFGRGTSLIVHP
V domain 2: B1 V domain 2
notes: as for B1
Cell Frequency ≥1000 MFI, ≥1% (% tetramer positive cells in the Ag+ gate) [1]: 31.9%
binding result [2]: recognises

B4: PN46735 (TCR, V domains shown)
V domain 1: DAKTTQPNSMESNEEEPVHLPCNHSTISGTDYIHWYRQLPSQGPEYVIHGLTSNVNNRMASLAIAEDRKSSTLILHRATLRDAAVYYCILREYMYSGGGADGLTFGKGTHLIIQP
V domain 2: DAGVTQSPTHLIKTRGQQVTLRCSPISGHKSVSWYQQVLGQGPQFIFQYYEKEERGRGNFPDRFSARQFPNYSSELNVNALLLGDSALYLCASSFQAGVNYGYTFGSGTRLTVV
notes: as for B1
Cell Frequency ≥1000 MFI, ≥1% (% tetramer positive cells in the Ag+ gate) [1]: 17.9%
binding result [2]: recognises

B5: PN46914 (TCR, V domains shown)
V domain 1: AQKVTQAQPEISVVEKEDVTLDCVYETRDTTYYLFWYKQPPSGELVFLIRRNSFDEQNEISGRYSWNFQKSTSSFNFTITASQVVDSAVYFCALSEGYNQGGKLIFGQGTELSVKP
V domain 2: DVKVTQSSRYLVKRTGEKVFLECVQDMDHENMFWYRQDPGLGLRLIYFSYDVKMKEKGDIPEGYSVSREKKERFSLILESASTNQTSMYLCASGADSNQPQHFGDGTRLSIL
notes: as for B1
Cell Frequency ≥1000 MFI, ≥1% (% tetramer positive cells in the Ag+ gate) [1]: 11.5%
binding result [2]: recognises

B6: PN46733 (TCR, V domains shown)
V domain 1: GESVGLHLPTLSVQEGDNSIINCAYSNSASDYFIWYKQESGKGPQFIIDIRSNMDKRQGQRVTVLLNKTVKHLSLQIAATQPGDSAVYFCAENNYGQNFVFGPGTRLSVLP
V domain 2: NAGVTQTPKFQVLKTGQSMTLQCAQDMNHNSMYWYRQDPGMGLRLIYYSASEGTTDKGEVPNGYNVSRLNKREFSLRLESAAPSQTSVYFCASSDWGQGVEAFFGQGTRLTVV
notes: as for B1
Cell Frequency ≥1000 MFI, ≥1% (% tetramer positive cells in the Ag+ gate) [1]: 87.9%
binding result [2]: recognises

B7: PN46723 (TCR, V domains shown)
V domain 1: EDQVTQSPEALRLQEGESSSLNCSYTVSGLRGLFWYRQDPGKGPEFLFTLYSAGEEKEKERLKATLTKKESFLHITAPKPEDSATYLCAVQEDGGSQGNLIFGKGTKLSVKP
V domain 2: DAGVTQSPTHLIKTRGQQVTLRCSPISGHKSVSWYQQVLGQGPQFIFQYYEKEERGRGNFPDRFSARQFPNYSSELNVNALLLGDSALYLCASSRDINEKLFFGSGTQLSVL
notes: as for B1
Cell Frequency ≥1000 MFI, ≥1% (% tetramer positive cells in the Ag+ gate) [1]: 72.5%
binding result [2]: recognises

B8: PN46678 (TCR, V domains shown)
V domain 1: AQKVTQAQPEISVVEKEDVTLDCVYETRDTTYYLFWYKQPPSGELVFLIRRNSFDEQNEISGRYSWNFQKSTSSFNFTITASQVVDSAVYFCALSEFDRGSTLGRLYFGRGTQLTVWP
V domain 2: B7 V domain 2
notes: as for B1
Cell Frequency ≥1000 MFI, ≥1% (% tetramer positive cells in the Ag+ gate) [1]: 11%
binding result [2]: recognises

B9: PN46714 (TCR, V domains shown)
V domain 1: B7 V domain 1 with E92A
V domain 2: B7 V domain 2 with R95L, E99S, K100P, F102H, S105N, Q108R, S110T, L112T
notes: as for B1
Cell Frequency ≥1000 MFI, ≥1% (% tetramer positive cells in the Ag+ gate) [1]: 62.1%
binding result [2]: recognises

B10: PN46889 (TCR, V domains shown)
V domain 1: QKEVEQNSGPLSVPEGAIASLNCTYSDRGSQSFFWYRQYSGKSPELIMSIYSNGDKEDGRFTAQLNKASQYVSLLIRDSQPSDSATYLCAVNIPNSGYSTLTFGKGTMLLVSP
V domain 2: NAGVTQTPKFRVLKTGQSMTLLCAQDMNHEYMYWYRQDPGMGLRLIHYSVGEGTTAKGEVPDGYNVSRLKKQNFLLGLESAAPSQTSVYFCASSYWEGTEAFFGQGTRLTVV
notes: as for B1
Cell Frequency ≥1000 MFI, ≥1% (% tetramer positive cells in the Ag+ gate) [1]: 92.5%
binding result [2]: recognises

B11: PN46871 (TCR, V domains shown)
V domain 1: KQEVTQIPAALSVPEGENLVLNCSFTDSAIYNLQWFRQDPGKGLTSLLLIQSSQREQTSGRLNASLDKSSGRSTLYIAASQPGDSATYLCAVEGTTDSWGKFQFGAGTQVVVTP
V domain 2: AAGVIQSPRHLIKEKRETATLKCYPIPRHDTVYWYQQGPGQDPQFLISFYEKMQSDKGSIPDRFSAQQFSDYHSELNMSSLELGDSALYFCASSSQGQPQHFGDGTRLSIL
notes: as for B1
Cell Frequency ≥1000 MFI, ≥1% (% tetramer positive cells in the Ag+ gate) [1]: 44.7%
binding result [2]: recognises

B12: PN46853 (TCR, V domains shown)
V domain 1: ILNVEQSPQSLHVQEGDSTNFTCSFPSSNFYALHWYRWETAKSPEALFVMTLNGDEKKKGRISATLNTKEGYSYLYIKGSQPEDSATYLCACGGSGNTGKLIFGQGTTLQVKP
V domain 2: B11 V domain 2
notes: as for B1
Cell Frequency ≥1000 MFI, ≥1% (% tetramer positive cells in the Ag+ gate) [1]: 35.4%
binding result [2]: recognises

B13: PN46731 (TCR, V domains shown)
V domain 1: GENVEQHPSTLSVQEGDSAVIKCTYSDSASNYFPWYKQELGKRPQLIIDIRSNVGEKKDQRIAVTLNKTAKHFSLHITETQPEDSAVYFCAAWNYGQNFVFGPGTRLSVLP
V domain 2: B11 V domain 2 with S95L, Q96E, Q98S, P99E, Q100A, H101F, D104Q, S109T, I110V, L111V
notes: as for B1
Cell Frequency ≥1000 MFI, ≥1% (% tetramer positive cells in the Ag+ gate) [1]: 15.7%
binding result [2]: recognises

B14: PN46777 (TCR, V domains shown)
V domain 1: AQTVTQSQPEMSVQEAETVTLSCTYDTSENNYYLFWYKQPPSRQMILVIRQEAYKQQNATENRFSVNFQKAAKSFSLKISDSQLGDTAMYFCALMEYGNKLVFGAGTILRVKS
V domain 2: DAGITQSPRYKITETGRQVTLMCHQTWSHSYMFWYRQDLGHGLRLIYYSAAADITDKGEVPDGYVVSRSKTENFPLTLESATRSQTSVYFCASSDGTGYYGYTFGSGTRLTVV
notes: as for B1
Cell Frequency ≥1000 MFI, ≥1% (% tetramer positive cells in the Ag+ gate) [1]: 98.9%
binding result [2]: recognises

B15: PN46738 (TCR, V domains shown)
V domain 1: AQTVTQSQPEMSVQEAETVTLSCTYDTSENNYYLFWYKQPPSRQMILVIRQEAYKQQNATENRFSVNFQKAAKSFSLKISDSQLGDTAMYFCAFGMYSGGGADGLTFGKGTHLIIQP
V domain 2: B14 V domain 2
notes: as for B1
Cell Frequency ≥1000 MFI, ≥1% (% tetramer positive cells in the Ag+ gate) [1]: 23%
binding result [2]: recognises

B16: PN46797 (TCR, V domains shown)
V domain 1: B14 V domain 1 with G98E
V domain 2: B14 V domain 2
notes: as for B1
Cell Frequency ≥1000 MFI, ≥1% (% tetramer positive cells in the Ag+ gate) [1]: 57.3%
binding result [2]: recognises
